Assay results taken from the supplement of paper PMC9170038.

Each sequence was assayed on MS2 coat protein (assay: apparent KD of MS2 coat protein; higher = weaker reporter binding). Conditions: Eterna round: R107; input ligand: theophylline 20 uM.
Summary of the method: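 Titrations with SNAP-549-labelled MS2 coat protein ran in twofold steps from 0.7 or 1.5 nM to 3 µM, each step taking 0.8–1.5 h at the start and 10–20 min toward the end. The targets were designed RNA switches transcribed on-chip from Illumina sequencing clusters, held in 100 mM Tris-HCl pH 7.5, 80 mM KCl, 4 mM MgCl2, without or with constant ligand. Apparent KD was taken per design as the median of normalised cluster binding-curve fits.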

Sequence | apparent KD of MS2 coat protein [nM]
ACAUGAGGAUCACCCAUGUUCCUCGCCGAUACCAGUGAAGAAUUACGCCCUUGGCAGCGGAAUGAGUGUUUUGGAGAUGAGGUAC [6.aB] | 112
GGUCUCUGGAGCGAUACCAGCUUGAUCGUACUAGCCUGGUACAUGAGGAUCACCCAUGUAAGCCCUUGGCAGCGCUCCAGAGACC [#1 Exclusion - Theophylline B Attempt #8 (HarryS)] | 15.8
CCGGGCCCGGGCGACCGGGCCCGGACUGAAGGAGCGGGAAUAAACCCAGGUAGGUCGCAGAGAUCCACAUGAGGAUCACCCAUGU [!0.V] | 49.6
GACGGCUCGACGGCCGCCACUCCCUCCGACUGAAGGCACAGUGGACAUGAGGAUCACCCAUGUCCGAGGACCGGGUCGAUCCUGG [theeternabot_sameState_MS2_Trp_B_32] | 19.3
ACUCGGCAUCAUGAUACCAGAGAGCCCGAGAUGCCUUAACACAUGAGGAUCACCCAUGUACUCCCUUGGCAGCAUCAUGCACUAU [theeternabot_exclusion_MS2_Theo_B_31] | 29
UCAAUAAUUAGAUUGUUACAUGUAUCAGAAGGAGCGUGAGUAAUCACAGGUAGGUCGCUGUUAACAUGAGGAUCACCCAUGUUUU [JR_ExcArginiA_Sub009] | 43.6
GGUGGCGUGACGGAUACCAGCCACCACCGCAAGACCACAUGAGGAUCACCCAUGUUGGGUGGCCCUUGGCAGCUGUCGUGCGGCG [#1 Same State - Theophylline B Attempt #19 (HarryS)] | 331
ACAUGAGGAUCACCCAUGUAAUCAUCAGAAGGAGCGUGGAAUAACACAGGUAGGUCGCUGAUGUUAUGUUAAAAUGGUUCGUGAA [JR_ExcArginiA_Sub002] | 23.7
GUGCCGCAUUCACAUGAGGAUCACCCAUGUCGAGGACCGGUACGGCCGCCACUCGACGUGCUUACAGGUCCUUUAAGGCCCAAUA [Usislaan] | 200
ACAAGGACAUGAGGAUCACCCAUGUGGGAAGGAGCGCAUAAAUAUGCAGGUAGGUCGCCCGGCGUGAUAUUUAAUAUUUUAAUAA [Exclusion - Arginine A] | 79.4
CGCCACUCGAGUGAUCCUCACGAGUGGCUACGAGGACCGGUACGGCCGCCACUCGAAUUAACAUGAGGAUCACCCAUGUAAUCUA [Brourdmod08] | 200
CCUGAUAACUGAAGGAGCGAGAAACCCUACAUGAGGAUCACCCAUGUAUACACGGGAACUUCUCAGGUAGGUCGCAGUAUGUCGG [Rienat] | 106
AAAAUAAAGGCGGCCGCCACUAGAGUUAGGCAUAUGUACUGGGUAACAUGAGGAUCACCCAUGUAUAGGACCGGGCCAUAAUAAA [Same State - Tryptophan B (Freestyle 1)] | 46.2
UGUCAUGGAAACAUGACUGGUUCUACCGGUCGAGGACCGGUACGGCCGCCACUCGGUUGGUGGCACAUGAGGAUCACCCAUGUUA [SS Tryp A #13] | 51.8
AUACAUGAGGAUCACCCAUGUCAUUCAGAAGGAGCGUCAUUUUAGACAGGUAGGUCGCUGAUAUUAUCUUUAUACUUUAUGUUUA [JR_ExcArginiA_Sub023] | 27.3

Same assay, conditions: Eterna round: R107; input ligand: theophylline 2 mM

Sequence | apparent KD of MS2 coat protein [nM]
UGGGAAGGAGGAAGGAGCGCCAUAAGGGUGACAGUCUGGGUACAUGAGGAUCACCCAUGUAGGCAGGUAGGUCGCCUCGCUCUCA [XArg-B15] | 14.3
UGUACUAUGUGAAGGAGCGAGAAUCCUACAUGAGGAUCACCCAUGUAAGAGCGAAAGCUCACUCAGGUAGGUCGCACAUAGUACU [#17 Same State - Arginine B] | 43.7
ACAUGAGGAUCACCCAUGUGAAGCAGGGUACGAGGACCGGUACGGCCGCCACUCGAGCAUUAUACCGAGUGAAUGGCAACGAUGU [whbob_Ex_trypto A_2s17] | 21.1
AGUAGCUGCCGAAGGAGCGCCGUGUUCCUACAUGAGGAUCACCCAUGUAGCGUUGGGUUACGGCAGGUAGGUCGCGGCAGAUAGG [#18 Same State - Arginine B] | 24.5
ACAUGAGGAUCACCCAUGUGUGUAAAUCCUCGAGGACCGGUACGGCCGCCACUCGAACGAGUGUAAGUUGAAUGUAACAUUCAAC [SS Trp A v1] | 104
ACGAAACAAGCGGCCGCCACUUCGUGGUGCUAAGGCUUGAUACUACAUGAGGAUCACCCAUGUCGAAGGACCGGGCUUGCGACUG [theeternabot_sameState_MS2_Trp_B_33] | 60
CGGUCGGUCGGCCGGUGAUUAUGGGAUGAAGGAGCGUGGGAAGCUACAGGUAGGUCGCAUCCGAAAGAUGAGGAUCACCCAUCUU [SSArg A #24Alt-Ms2 Mod] | 46.4
AAAUAUAACUCGGCCGCCACUGACAUGAGGAUCACCCAUGUUAUAUUUUAUACAUGAGGAUCACCCAGGACCGGGAGAAUAUAAA [Jonah 1] | 696
UCGUGAGUUUCGGAUACCAGUGUGGUCGAUACAUGAGGAUCACCCAUGUUAGAGGAGGUACACCCUUGGCAGCCGGCUGUGGCGG [hlhmullin] | 18.1
AGCGUGCAUAGGAAAACUAUGUACGCAAAUCGAGGACCGGUACGGCCGCCACUCGUCCUCAACAUGAGGAUCACCCAUGUAAUAA [Mat - Exclusion - Trytophan A - D9] | 22.5
AUAUUAAUCGGAAGGAGCGGUACAUGAGGAUCACCCAUGUGCUAAGCUAGCAGAUCCCGUUACCAGGUAGGUCGCCGAGUUAUGA [Titeonra] | 29.5
GGUCUCUGGAGCGAUACCAGCUUGAUCGUACUAGCCUGGUACAUGAGGAUCACCCAUGUAAGCCCUUGGCAGCGCUCCAGAGACC [#1 Exclusion - Theophylline B Attempt #8 (HarryS)] | 21.4
CCGGGCCCGGGCGACCGGGCCCGGACUGAAGGAGCGGGAAUAAACCCAGGUAGGUCGCAGAGAUCCACAUGAGGAUCACCCAUGU [!0.V] | 50.9
GACGGCUCGACGGCCGCCACUCCCUCCGACUGAAGGCACAGUGGACAUGAGGAUCACCCAUGUCCGAGGACCGGGUCGAUCCUGG [theeternabot_sameState_MS2_Trp_B_32] | 18.3
UCAAUAAUUAGAUUGUUACAUGUAUCAGAAGGAGCGUGAGUAAUCACAGGUAGGUCGCUGUUAACAUGAGGAUCACCCAUGUUUU [JR_ExcArginiA_Sub009] | 39.2
GGUGGCGUGACGGAUACCAGCCACCACCGCAAGACCACAUGAGGAUCACCCAUGUUGGGUGGCCCUUGGCAGCUGUCGUGCGGCG [#1 Same State - Theophylline B Attempt #19 (HarryS)] | 475
ACAUGAGGAUCACCCAUGUAAUCAUCAGAAGGAGCGUGGAAUAACACAGGUAGGUCGCUGAUGUUAUGUUAAAAUGGUUCGUGAA [JR_ExcArginiA_Sub002] | 17.3
GUGCCGCAUUCACAUGAGGAUCACCCAUGUCGAGGACCGGUACGGCCGCCACUCGACGUGCUUACAGGUCCUUUAAGGCCCAAUA [Usislaan] | 221
ACAAGGACAUGAGGAUCACCCAUGUGGGAAGGAGCGCAUAAAUAUGCAGGUAGGUCGCCCGGCGUGAUAUUUAAUAUUUUAAUAA [Exclusion - Arginine A] | 73.5
CGCCACUCGAGUGAUCCUCACGAGUGGCUACGAGGACCGGUACGGCCGCCACUCGAAUUAACAUGAGGAUCACCCAUGUAAUCUA [Brourdmod08] | 322
CCUGAUAACUGAAGGAGCGAGAAACCCUACAUGAGGAUCACCCAUGUAUACACGGGAACUUCUCAGGUAGGUCGCAGUAUGUCGG [Rienat] | 145
AAAAUAAAGGCGGCCGCCACUAGAGUUAGGCAUAUGUACUGGGUAACAUGAGGAUCACCCAUGUAUAGGACCGGGCCAUAAUAAA [Same State - Tryptophan B (Freestyle 1)] | 33.4
UGUCAUGGAAACAUGACUGGUUCUACCGGUCGAGGACCGGUACGGCCGCCACUCGGUUGGUGGCACAUGAGGAUCACCCAUGUUA [SS Tryp A #13] | 44.7
AUACAUGAGGAUCACCCAUGUCAUUCAGAAGGAGCGUCAUUUUAGACAGGUAGGUCGCUGAUAUUAUCUUUAUACUUUAUGUUUA [JR_ExcArginiA_Sub023] | 18.2

Same assay, conditions: Eterna round: R107; input ligand: tryptophan 2.4 mM

Sequence | apparent KD of MS2 coat protein [nM]
AGACAUGAGGAUCACCCAUGUAGUACGGAUACCAGAUCCAGAUGCAUCCCUUGGCAGCUGUGGUACAGCGUUACAUCGCUCGUAG [Exclusion - Theophylline A (Freestyle 22)] | 18.8
UGGGAAGGAGGAAGGAGCGCCAUAAGGGUGACAGUCUGGGUACAUGAGGAUCACCCAUGUAGGCAGGUAGGUCGCCUCGCUCUCA [XArg-B15] | 12.5
CUGUUUGUUUGGGUCUGUCAAAAGAACGAUACCAGCCGCAUUAUGGGCCCUUGGCAGCGUAGGACAUGAGGAUCACCCAUGUACG [theeternabot_exclusion_MS2_Theo_A_16] | 16.2
UGUACUAUGUGAAGGAGCGAGAAUCCUACAUGAGGAUCACCCAUGUAAGAGCGAAAGCUCACUCAGGUAGGUCGCACAUAGUACU [#17 Same State - Arginine B] | 48.8
AGUAGCUGCCGAAGGAGCGCCGUGUUCCUACAUGAGGAUCACCCAUGUAGCGUUGGGUUACGGCAGGUAGGUCGCGGCAGAUAGG [#18 Same State - Arginine B] | 22.4
CGGUCGGUCGGCCGGUGAUUAUGGGAUGAAGGAGCGUGGGAAGCUACAGGUAGGUCGCAUCCGAAAGAUGAGGAUCACCCAUCUU [SSArg A #24Alt-Ms2 Mod] | 21.5
AAAUAUAACUCGGCCGCCACUGACAUGAGGAUCACCCAUGUUAUAUUUUAUACAUGAGGAUCACCCAGGACCGGGAGAAUAUAAA [Jonah 1] | 1590
UCGUGAGUUUCGGAUACCAGUGUGGUCGAUACAUGAGGAUCACCCAUGUUAGAGGAGGUACACCCUUGGCAGCCGGCUGUGGCGG [hlhmullin] | 25
GAAUCUACAAACGAUACCAGAUCCGGCUGCCACAUGAGGAUCACCCAUGUCUAGCGACUCAUCCCUUGGCAGCGUGUGCAUCCCG [theeternabot_sameState_MS2_Theo_B_37] | 629
AUAUUAAUCGGAAGGAGCGGUACAUGAGGAUCACCCAUGUGCUAAGCUAGCAGAUCCCGUUACCAGGUAGGUCGCCGAGUUAUGA [Titeonra] | 23.4
ACAUGAGGAUCACCCAUGUUCCUCGCCGAUACCAGUGAAGAAUUACGCCCUUGGCAGCGGAAUGAGUGUUUUGGAGAUGAGGUAC [6.aB] | 81
GGUCUCUGGAGCGAUACCAGCUUGAUCGUACUAGCCUGGUACAUGAGGAUCACCCAUGUAAGCCCUUGGCAGCGCUCCAGAGACC [#1 Exclusion - Theophylline B Attempt #8 (HarryS)] | 12.1
CCGGGCCCGGGCGACCGGGCCCGGACUGAAGGAGCGGGAAUAAACCCAGGUAGGUCGCAGAGAUCCACAUGAGGAUCACCCAUGU [!0.V] | 48.6
ACUCGGCAUCAUGAUACCAGAGAGCCCGAGAUGCCUUAACACAUGAGGAUCACCCAUGUACUCCCUUGGCAGCAUCAUGCACUAU [theeternabot_exclusion_MS2_Theo_B_31] | 22.7
UCAAUAAUUAGAUUGUUACAUGUAUCAGAAGGAGCGUGAGUAAUCACAGGUAGGUCGCUGUUAACAUGAGGAUCACCCAUGUUUU [JR_ExcArginiA_Sub009] | 36.8
GGUGGCGUGACGGAUACCAGCCACCACCGCAAGACCACAUGAGGAUCACCCAUGUUGGGUGGCCCUUGGCAGCUGUCGUGCGGCG [#1 Same State - Theophylline B Attempt #19 (HarryS)] | 110
ACAUGAGGAUCACCCAUGUAAUCAUCAGAAGGAGCGUGGAAUAACACAGGUAGGUCGCUGAUGUUAUGUUAAAAUGGUUCGUGAA [JR_ExcArginiA_Sub002] | 22.5
ACAAGGACAUGAGGAUCACCCAUGUGGGAAGGAGCGCAUAAAUAUGCAGGUAGGUCGCCCGGCGUGAUAUUUAAUAUUUUAAUAA [Exclusion - Arginine A] | 60.2
CCUGAUAACUGAAGGAGCGAGAAACCCUACAUGAGGAUCACCCAUGUAUACACGGGAACUUCUCAGGUAGGUCGCAGUAUGUCGG [Rienat] | 93
AAAAUAAAGGCGGCCGCCACUAGAGUUAGGCAUAUGUACUGGGUAACAUGAGGAUCACCCAUGUAUAGGACCGGGCCAUAAUAAA [Same State - Tryptophan B (Freestyle 1)] | 36.5
UGUCAUGGAAACAUGACUGGUUCUACCGGUCGAGGACCGGUACGGCCGCCACUCGGUUGGUGGCACAUGAGGAUCACCCAUGUUA [SS Tryp A #13] | 29.7
AUACAUGAGGAUCACCCAUGUCAUUCAGAAGGAGCGUCAUUUUAGACAGGUAGGUCGCUGAUAUUAUCUUUAUACUUUAUGUUUA [JR_ExcArginiA_Sub023] | 19.9
